Measured values as given in IntAct's records for PubMed 12163175.

B1: Protein ROG3 (Saccharomyces cerevisiae), P43602 (parent)
chain: MGFSSGKSTKKKPLLFDIRLKNVDNDVILLKGPPNEAPSVLLSGCIVLSINEPMQIKSISLRLYGKIQIDVPLERPQDASSSSLSSSPPKIRKYNKVFYNYAWDNVNLKEYLSGLRGQSGLAGSSSSSNILGTRQRAQSTSSLKSLKGSSSPSSCTLDKGNYDFPFSAILPGSLPESVESLPNCFVTYSMESVIERSKNYSDLICRKNIRVLRTISPAAVELSETVCVDNSWPDKVDYSISVPNKAVAIGSATPINISIVPLSKGLKLGSIKVVLFENYQYCDPFPPVISENRQVTELNLEDPLNESSGEFNGNGCFVNNPFFQPDHSFQDKWEIDTILQIPNSLSNCVQDCDVRSNIKVRHKLKFFIILINPDGHKSELRASLPIQLFISPFVALSIKPLSSSNLYSLFSTTNQKDENSSQEEEEEYLFSRSASVTGLELLADMRSGGSVPTISDLMTPPNYEMHVYDRLYSGSFTRTAVETSGTCTPLGSECSTVEDQQQDLEDLRIRLTKIRNQRDNLGLPPSASSAAASRSLSPLLNVPAPEDGTERILPQSALGPNSGSVPGVHSNVSPVLLSRSPAPSVSAHEVLPVPSGLNYPETQNLNKVPSYGKAMKYDIIGEDLPPSYPCAIQNVQPRKPSRVHSRNSSTTLSSSIPTSFHSSSFMSSTASPISIINGSRSSSSGVSLNTLNELTSKTSNNPSSNSMKRSPTRRRATSLAGFMGGFLSKGNKR
B2: Protein ROD1 (Saccharomyces cerevisiae), Q02805 (parent)
chain: MFSSSSRPSKEPLLFDIRLRNLDNDVLLIKGPPDEASSVLLSGTIVLSITEPIQIKSLALRLFGRLRLNIPTVLQTVHGPHKRYSKFERNIYSHFWDDFNIKSYFQNLYDNHNNGKITISSKSSTNLAALPKRKRALSTASLISSNGQTSASKNYHTLVKGNYEFPFSAIIPGSLVESVEGLPNAAVTYALEATIERPKQPDLICKKHLRVIRTLAIDAVELSETVSVDNSWPEKVDYTISIPTKAIAIGSSTMINILIVPILKGLKLGPVRISLVENSQYCGSYGGVINQERMVAKLKLKDPLKHVAQIKKKRSLNEAADEGVDTDTGEFQDKWEVRALLNIPASLTKCSQDCRILSNIKVRHKIKFTISLLNPDGHISELRAALPVQLFISPFVPVNVKTSDVIERTLKTFGPSYQVTSQHDNSFSSKNFVDDSEEDVIFQRSASALQLSSMPTIVSGSTLNINSTDAEATAVADTTMVTSLMVPPNYGNHVYDRVYGEVTNEDETSASASSSAVESQAIHNIQNLYISDSNNSNNPILAPNPQIKIEDDSLNNCDSRGDSVNNSNLNLVNSNLTISENWNNNSPSANRYNNIINAGLNSPSLTPSFAHLSRRNSYSRQTSSTSLKNDLELTDLSRVPSYDKAMKSDMIGEDLPPAYPEEELGVQENKKIELERPQILHHKSTSSLLPLPGSSKSSNNLKRSSSRTHLSHSPLPRNNSGSSVSLQQLARNNTDSSFNLNLSFTSAKSSTGSRHFPFNMTTSFTSNSSSKNNSHFDKTDSTSDANKPREEENYTSATHNRRSRSSSVRSNNSNSPLRQGTGSFANLMEMFTKRDRS

Variants of: B1
Conditions: with rsp5_yeast RSP5, P39940
Target sequence in this assay (P39940 whole entry): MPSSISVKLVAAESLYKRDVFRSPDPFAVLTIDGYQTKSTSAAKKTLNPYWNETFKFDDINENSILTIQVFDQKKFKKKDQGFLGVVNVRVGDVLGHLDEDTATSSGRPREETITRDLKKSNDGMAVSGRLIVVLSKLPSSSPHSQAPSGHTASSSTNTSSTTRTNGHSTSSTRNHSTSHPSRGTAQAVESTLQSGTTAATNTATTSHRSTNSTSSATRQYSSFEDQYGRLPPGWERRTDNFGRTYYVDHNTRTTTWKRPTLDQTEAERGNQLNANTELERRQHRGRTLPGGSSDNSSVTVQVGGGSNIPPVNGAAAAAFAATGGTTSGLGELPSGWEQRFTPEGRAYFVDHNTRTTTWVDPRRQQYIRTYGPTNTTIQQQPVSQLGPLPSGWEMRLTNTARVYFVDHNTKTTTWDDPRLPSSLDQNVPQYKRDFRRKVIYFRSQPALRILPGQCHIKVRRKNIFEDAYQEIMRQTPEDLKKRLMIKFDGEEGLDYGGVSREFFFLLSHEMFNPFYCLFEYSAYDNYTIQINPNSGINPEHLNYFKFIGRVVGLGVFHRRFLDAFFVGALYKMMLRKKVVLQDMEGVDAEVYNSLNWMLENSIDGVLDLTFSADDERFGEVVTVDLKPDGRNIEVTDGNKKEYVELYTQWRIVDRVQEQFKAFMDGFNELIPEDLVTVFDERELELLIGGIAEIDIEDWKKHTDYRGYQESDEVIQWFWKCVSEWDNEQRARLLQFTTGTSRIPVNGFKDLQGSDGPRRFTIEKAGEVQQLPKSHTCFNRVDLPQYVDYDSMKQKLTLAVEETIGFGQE

effect of a mutation on the interaction | Variant
disrupting interaction | C487Q;T488A

Variants of: B2
Conditions: with rsp5_yeast RSP5, P39940
Target sequence in this assay (P39940 whole entry): as above

effect of a mutation on the interaction | Variant
disrupting interaction | P487Q;P488A
